Biological target: T1, Tb927.11.16120-His (r16120) (Trypanosoma brucei, UniProt Q381H4 1-610)
T1 sequence: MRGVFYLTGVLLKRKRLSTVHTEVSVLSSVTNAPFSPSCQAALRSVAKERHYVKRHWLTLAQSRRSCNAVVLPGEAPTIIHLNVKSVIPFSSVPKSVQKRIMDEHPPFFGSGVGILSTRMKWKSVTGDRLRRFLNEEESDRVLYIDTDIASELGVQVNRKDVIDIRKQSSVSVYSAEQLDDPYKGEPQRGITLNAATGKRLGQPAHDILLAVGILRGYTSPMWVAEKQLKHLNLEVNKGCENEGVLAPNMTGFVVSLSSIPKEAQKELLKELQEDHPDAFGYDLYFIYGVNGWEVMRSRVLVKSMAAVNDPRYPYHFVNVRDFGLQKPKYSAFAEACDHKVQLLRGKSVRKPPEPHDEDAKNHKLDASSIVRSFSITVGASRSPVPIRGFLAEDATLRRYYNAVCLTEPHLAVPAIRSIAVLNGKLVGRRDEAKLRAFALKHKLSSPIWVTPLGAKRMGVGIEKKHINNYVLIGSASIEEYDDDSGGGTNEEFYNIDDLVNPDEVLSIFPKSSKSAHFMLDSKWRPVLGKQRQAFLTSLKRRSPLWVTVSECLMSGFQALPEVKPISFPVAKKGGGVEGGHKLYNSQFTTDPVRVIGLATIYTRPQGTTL
Assay: EMSA

B1: 73 bp conserved minicircle sequence (dsDNA)
DNA 1: GAAAAAACGGAAAATCTTATGGGCGTGCAAAAATACACATACACAAATCCCGTGCTTATTTTAGGCCATTTTT
DNA 2: AAAAATGGCCTAAAATAAGCACGGGATTTGTGTATGTGTATTTTTGCACGCCCATAAGATTTTCCGTTTTTTC
- binding result: binds
